{
  "source": "patent US12233135B2",
  "about": "“Therapeutic constructs for treating cancer” (PRECISION MOLECULAR INC., priority 2018, dated 2025)",
  "molecules": {"B1": {"name": "recombinant mIL-12: recombinant mIL-12 protein (PeproTech) administered subcutaneously (protein, UniProt P43431 23-215; P43432 23-335, looked up)", "Interleukin-12 subunit alpha": "RVIPVSGPARCLSQSRNLLKTTDDMVKTAREKLKHYSCTAEDIDHEDITRDQTSTLKTCLPLELHKNESCLATRETSSTTRGSCLPPQKTSLMMTLCLGSIYEDLKMYQTEFQAINAALQNHNHQQIILDKGMLVAIDELMQSLNHNGETLRQKPPVGEADPYRVKMKLCILLHAFSTRVVTINRVMGYLSSA", "Interleukin-12 subunit beta": "MWELEKDVYVVEVDWTPDAPGETVNLTCDTPEEDDITWTSDQRHGVIGSGKTLTITVKEFLDAGQYTCHKGGETLSHSHLLLHKKENGIWSTEILKNFKNKTFLKCEAPNYSGRFTCSWLVQRNMDLKFNIKSSSSSPDSRAVTCGMASLSAEKVTLDQRDYEKYSVSCQEDVTCPTAEETLPIELALEARQQNKYENYSTSFFIRDIIKPDPPKNLQMKPLKNSQVEVSWEYPDSWSTPHSYFSLKFFVRIQRKKEKMKETEEGCNQKGAFLVEKTSTEVQCKGGNVCVQAQDRYYNSSCSKWACVPCRVRS"}},
  "tested_on": "B16F10-Red-FLuc mouse melanoma cells",
  "test": "Syngeneic model of experimental metastasis to the lung using B16F10-Red-FLuc cells",
  "type": "in vivo",
  "conditions": "Example 9",
  "method": "B16F10-Red-FLuc mouse melanoma cells (Perkin Elmer, Waltham, MA, USA) were cultured in RPMI 1640 cell culture medium supplemented with 10% FBS, 1% GlutaMAX™, and 1% penicillin-streptomycin, and grown at 37° C. in a humidified cell culture incubator supplied with 5% CO2. The cells were harvested by trypsinization, washed twice in HBSS and counted (using trypan blue exclusion). The final cell density was adjusted with HBSS to 3.5×10e6 cells/mL. 100 μL of cell suspension, consisting of 3.5×10e5 cells, was discharged into the tail vein of mice at the start of the study (Day 0). Imaging was performed on study Day 5, when the presence of lung tumors was confirmed in sufficient animals to commence the study. Imaging was performed as described in Example 6.\n9.5% Trehalose buffer and nanoparticles containing PEG-lucia, PEG-mIL12, PEG-TK-mIL12, PEG-mIL2-mIL12 and PEG-TK-mIL2-mIL12 (each 60 μg/vial) were reconstituted in 300 μL of nuclease-free water per vial on the day of dosing to give dosing solutions of 200 μg/mL. Formulated test articles were stored at 4° C. and used on day of reconstitution.\n9.5% Trehalose buffer and nanoparticles containing PEG-lucia, PEG-mIL12, PEG-TK-mIL12, PEG-mIL2-mIL12 and PEG-TK-mIL2-mIL12 were administered via intravenous injection (i.v.) on Study Days 5, 8, 11, 14 and 17. Treatments were administered at a dose of 2 mg/kg in a dosing volume of 10 mL/kg on Study Days 5, 11, 14 and 17. Due to declining body weight in all groups apart from the vehicle control at Day 6, the dose was reduced to 1 mg/kg in 5 mL/kg for the dose administered on Study Day 8. Dosing then resumed at 2 mg/kg in 10 mL/kg on Study Day 11 as per protocol.\nThe anti-tumor effect of nanoparticles containing PEG-mIL12 and expressing mIL-12 was compared to recombinant mIL-12 protein administered subcutaneously. The experimental design was as Example 8 but nanoparticles were prepared at N/P=4 and N/P=6 ratios. Nanoparticles were dosed as before for N/P=6, however, for the N/P=4 formulation the dose was maintained at 2 mg/kg in 10 mL/kg at day 8. […]",
  "data": [
    {"molecule": "B1", "values": [
      {"measurement": "Median survival compared with Trehalose control", "setting": "Log-rank test, p≤0.01 for PEG-mIL12 formulations, p≤0.05 for recombinant mIL-12", "result": "significantly longer"},
      {"measurement": "tumor growth by luminescence compared with 9.5% Trehalose control", "setting": "Study Day 19", "result": "significant (p≤0.05) inhibition of tumor growth"},
      {"measurement": "Median survival time", "setting": "nanoparticles 2 mg/kg i.v., recombinant mIL-12 s.c. 4 μg/kg then 12 μg/kg, Trehalose control 22.0 days", "result": 25.0, "unit": "days"}
    ]}
  ]
}
